Results on two molecules are retold here after patent US20230078265A1, “METHODS AND COMPOSITIONS FOR EDITING NUCLEOTIDE SEQUENCES” (The Broad Institute, Inc., priority 2019, published 2023).

One experiment has as its system HEK cells. In words: Npu intein-split prime editors, plasmid transfection of HEK cells, high-throughput sequencing. Conditions: plasmids, split site 1023/1024. The class given is cell-based. From the text: This Example is focused on a PE fusion protein comprising the canonical SpCas9 (SEQ ID NO: 18). The split sites for other Cas9 proteins may be the corresponding same site, or may need to be optimized for each different Cas9 protein. In the instant Example, the prime editor was split between residues 1023 and 1024 of SpCas9 (SEQ ID NO: 18). This is referred to as the “1023/1024” split site.
Prime editors (PEs) exceed the AAV packaging capacity.
It was therefore determined whether mutation from the Cas9-native “SEQ” towards the Npu intein “CFN” sequence altered efficiency of prime editing.

The next experiment has as its system DNA. Conditions: mutation relative to canonical SpCas9, SEQ ID NO: 18; cited from earlier work.

B1: 1024-CFN: intein-split PE with extein residues mutated to Npu-native CFN (protein)
chain: MKRTADGSEFESPKKKRKVIKIATRKYLGKQNVYDIGVERDHNFALKNGFIASNCFNEIGKATAKYFFYSNIMNFFKTEITLANGEIRKRPLIETNGETGEIVWDKGRDFATVRKVLSMPQVNIVKKTEVQTGGFSKESILPKRNSDKLIARKKDWDPKKYGGFDSPTVAYSVLVVAKVEKGKSKKLKSVKELLGITIMERSSFEKNPIDFLEAKGYKEVKKDLIIKLPKYSLFELENGRKRMLASAGELQKGNELALPSKYVNFLYLASHYEKLKGSPEDNEQKQLFVEQHKHYLDEIIEQISEFSKRVILADANLDKVLSAYNKHRDKPIREQAENIIHLFTLTNLGAPAAFKYFDTTIDRKRYTSTKEVLDATLIHQSITGLYETRIDLSQLGGDSGGSSGGSSGSETPGTSESATPESSGGSSGGSSTLNIEDEYRLHETSKEPDVSLGSTWLSDFPQAWAETGGMGLAVRQAPLIIPLKATSTPVSIKQYPMSQEARLGIKPHIQRLLDQGILVPCQSPWNTPLLPVKKPGTNDYRPVQDLREVNKRVEDIHPTVPNPYNLLSGLPPSHQWYTVLDLKDAFFCLRLHPTSQPLFAFEWRDPEMGISGQLTWTRLPQGFKNSPTLFNEALHRDLADFRIQHPDLILLQYVDDLLLAATSELDCQQGTRALLQTLGNLGYRASAKKAQICQKQVKYLGYLLKEGQRWLTEARKETVMGQPTPKTPRQLREFLGKAGFCRLFIPGFAEMAAPLYPLTKPGTLFNWGPDQQKAYQEIKQALLTAPALGLPDLTKPFELFVDEKQGYAKGVLTQKLGPWRRPVAYLSKKLDPVAAGWPPCLRMVAAIAVLTKDAGKLTMGQPLVILAPHAVEALVKQPPDRWLSNARMTHYQALLLDTDRVQFGPVVALNPATLLPLPEEGLQHNCLDILAEAHGTRPDLTDQPLPDADHTWYTDGSSLLQEGQRKAGAAVTTETEVIWAKALPAGTSAQRAELIALTQALKMAEGKKLNVYTDSRYAFATAHIHGEIYRRRGWLTSEGKEIKNKDEILALLKALFLPKRLSIIHCPGHQKGHSAEARGNRMADQAARKAAITETPDTSTLLIENSSPSGGSKRTADGSEFEPKKKRK
Consider B1, for which the “prime editing activity compared with full-length PE3” value in the experiment with HEK cells is “recapitulates full-length PE3 activity”.

B2: 175-307 deletion: SpCas9 mutation relative to SEQ ID NO: 18 (protein)
chain: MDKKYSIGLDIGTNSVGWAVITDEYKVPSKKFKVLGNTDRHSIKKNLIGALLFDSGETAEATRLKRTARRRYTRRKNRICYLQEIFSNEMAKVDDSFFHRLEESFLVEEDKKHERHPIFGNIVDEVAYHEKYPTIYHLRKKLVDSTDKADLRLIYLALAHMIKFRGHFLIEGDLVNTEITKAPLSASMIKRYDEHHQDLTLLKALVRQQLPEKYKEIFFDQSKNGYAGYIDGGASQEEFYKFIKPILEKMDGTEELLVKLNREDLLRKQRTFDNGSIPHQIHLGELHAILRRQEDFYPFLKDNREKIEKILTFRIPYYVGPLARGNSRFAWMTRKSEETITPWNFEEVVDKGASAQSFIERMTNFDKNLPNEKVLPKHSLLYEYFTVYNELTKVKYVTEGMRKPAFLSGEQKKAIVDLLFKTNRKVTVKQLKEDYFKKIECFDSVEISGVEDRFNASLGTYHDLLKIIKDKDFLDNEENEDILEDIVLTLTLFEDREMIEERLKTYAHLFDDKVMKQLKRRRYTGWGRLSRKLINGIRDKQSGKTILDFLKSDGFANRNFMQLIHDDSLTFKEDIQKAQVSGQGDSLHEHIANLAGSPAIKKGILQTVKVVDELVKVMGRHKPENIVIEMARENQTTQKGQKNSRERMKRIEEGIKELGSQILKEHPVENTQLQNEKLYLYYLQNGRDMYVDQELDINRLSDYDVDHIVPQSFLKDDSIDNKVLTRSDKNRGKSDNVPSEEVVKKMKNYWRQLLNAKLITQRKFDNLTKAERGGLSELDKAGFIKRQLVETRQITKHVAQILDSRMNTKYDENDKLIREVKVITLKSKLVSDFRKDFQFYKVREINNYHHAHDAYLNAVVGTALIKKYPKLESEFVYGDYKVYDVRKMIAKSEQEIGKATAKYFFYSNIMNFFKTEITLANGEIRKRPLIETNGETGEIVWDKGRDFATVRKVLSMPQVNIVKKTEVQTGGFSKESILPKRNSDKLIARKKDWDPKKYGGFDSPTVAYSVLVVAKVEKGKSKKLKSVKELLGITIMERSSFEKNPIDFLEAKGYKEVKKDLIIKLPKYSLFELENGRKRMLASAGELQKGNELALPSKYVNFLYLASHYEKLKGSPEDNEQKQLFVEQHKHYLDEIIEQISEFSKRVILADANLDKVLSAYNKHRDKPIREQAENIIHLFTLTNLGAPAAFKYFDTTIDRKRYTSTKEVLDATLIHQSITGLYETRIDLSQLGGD
modifications: Streptococcus pyogenes
B2: in the experiment on DNA, the “decreased DNA cleavage” value is reported as “About 50% decreased DNA cleavage”.
